B1: MTMR15 (parent)
chain: FSPDFTLRNTLKSTSEDSLVKQEC

Results on 94 variants are retold here after the supplement of paper PMC10567573.
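Note: lentivirally expressed fusions sorted by FACS into six bins by GFP to DsRed ratio, PSI derived from sequencing read proportions per bin multiplied by bin number.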

Variants of B1 are the subject of this series. The experiment in a line: protein stability index of a GFP-peptide fusion (GPS, HEK-293T) (PSI 1-6); higher = more stable. The following applies: c terminus: a fixed tail appended.
Turning to FSPDFFLRNTLKSTSEDSLVKQEC [T6F], the protein stability index is 1.84.

Consider FSPDFSLRNTLKSTSEDSLVKQEC [T6S], for which the protein stability index was determined as 2.27. With FSPDFQLRNTLKSTSEDSLVKQEC [T6Q] the figure was 2.24; with FSPDFGLRNTLKSTSEDSLVKQEC [T6G], 2.63; with FSPDFWLRNTLKSTSEDSLVKQEC [T6W], 1.84. With FSPDFDLRNTLKSTSEDSLVKQEC [T6D] the figure was 2.7; with FSPDFNLRNTLKSTSEDSLVKQEC [T6N], 1.77; with FSPDFRLRNTLKSTSEDSLVKQEC [T6R], 1.77. As for FSPDFTLRNTLKSTSEDSLVKQKC [E23K], the protein stability index was found to be 1.61. Take FSPDFTLRNTLKSTSEDSLVKQWC [E23W]: the protein stability index stood at 2.59. As for FSPDFTLRNTLKSTSEDSLVKQLC [E23L], the protein stability index came out at 1.77.

Turning to FSPDFTLRNTLKSTSEDSLVKQDC [E23D], the protein stability index is 1.52. For FSPDFTLRNTLKSTSEDSLVKQNC [E23N], the protein stability index came to 1.58.

Turning to FSPDFTLRNTLKSTSEDSLVKQQC [E23Q], the protein stability index came out at 2.3.

In the case of FSPDFTLRNTLKSTSEDSLVKQYC [E23Y], the protein stability index came to 1.84. Take FSPDFTLRNTLKSTSEDSLVKQAC [E23A]: the protein stability index was 2.87. Then FSPDFTLRNALKSTSEDSLVKQEC [T10A], with 2.16; and FSPDFTLRNQLKSTSEDSLVKQEC [T10Q], with 1.59; and FSPDFTLRNKLKSTSEDSLVKQEC [T10K], with 1.72. With FSPDFTLRNCLKSTSEDSLVKQEC [T10C], the protein stability index was 2.14. On to FSPSFTLRNTLKSTSEDSLVKQEC [D4S], for which the protein stability index was found to be 1.9. Turning to FSPNFTLRNTLKSTSEDSLVKQEC [D4N], the protein stability index stood at 2.23. Regarding FSPEFTLRNTLKSTSEDSLVKQEC [D4E], the protein stability index is 1.94. Then FSPPFTLRNTLKSTSEDSLVKQEC [D4P], with 4; and FSPCFTLRNTLKSTSEDSLVKQEC [D4C], with 1.78; and FSPVFTLRNTLKSTSEDSLVKQEC [D4V], with 2.01. Take FSPDFTLRNTLKSTSEDSLVKLEC [Q22L]: the protein stability index is 1.88. FSPDFTLRNTLKSTSEDSLVKGEC [Q22G]: the protein stability index turned out to be 2.31.

As to FSPDFTLRNTLKSTSEDSLVKSEC [Q22S], the protein stability index amounted to 1.86. Regarding FSPDFTLRNTLKSTSEDSLVKDEC [Q22D], the protein stability index turned out to be 1.92. Turning to FSPDFTLRNTLKSTSEDSLVKCEC [Q22C], the protein stability index was 2.06. Consider FSPDFTLRNTLKSTSEDSLVKTEC [Q22T], for which the protein stability index is 2.42. FSPDFTLRNTLKSTSEDSLVKREC [Q22R]: the protein stability index stood at 1.72. Then FSPDFTLRNTLKSTSEDSLVSQEC [K21S], with 1.9.

Take FSPDFTLRNTLKSTSEDSLVEQEC [K21E]: the protein stability index is 2.52. With FSPDFTLRNTLKSTSEDSLVIQEC [K21I], the protein stability index is 2.21. With FSPDFTLRNTLKSTSEDSLVYQEC [K21Y], the protein stability index was found to be 2.62. On to FSPDFTLRNTLKSTSEDSLVDQEC [K21D], for which the protein stability index was 2.23.

Consider FSPDFTLRNTLKSTSEDSLVQQEC [K21Q], for which the protein stability index was found to be 2.33. For FSPDFTLRNTLKSTSEDSLVGQEC [K21G], the protein stability index was 2.15. As to FSPDFTLRNTLKSTSEDSLVTQEC [K21T], the protein stability index worked out at 2.1. For the variant FSPDFTPRNTLKSTSEDSLVKQEC [L7P], the protein stability index was found to be 2.54. Regarding FSPDFTNRNTLKSTSEDSLVKQEC [L7N], the protein stability index came out at 1.91. Regarding FSPDFTSRNTLKSTSEDSLVKQEC [L7S], the protein stability index worked out at 2.08. As for FSPDFTERNTLKSTSEDSLVKQEC [L7E], the protein stability index amounted to 2.99. Then FSPDFTLRNTLKSTSEDRLVKQEC [S18R], with 2.3.

For FSPDFTLRNTLKSTSEDTLVKQEC [S18T], the protein stability index worked out at 2.21. On to FSPDFTLRNTLKSTSEDCLVKQEC [S18C], for which the protein stability index came out at 1.79. Then FSPDFTLRNTLKSTSEDELVKQEC [S18E], with 2.02; and FSPDFTLRNTLKSTSEDNLVKQEC [S18N], with 1.57. In the case of FSPDFTLRNTLKSTSEDSLIKQEC [V20I], the protein stability index stood at 2.19. Take FSPDFTLRNTLKSTSEDSLSKQEC [V20S]: the protein stability index turned out to be 2.04. As for FSPDFTLRNTLKSTSEDSLKKQEC [V20K], the protein stability index was 2.46. FSPDFTLRNTLKSTSEDSLYKQEC [V20Y]: the protein stability index is 2. Then FSPDFTLRNTLKSTSEDSLCKQEC [V20C], with 1.74; and FSPDFTLRNTLKSTSEDSLHKQEC [V20H], with 2.19. Consider FSPDFTLRNTLKSTMEDSLVKQEC [S15M], for which the protein stability index amounted to 1.99. Then FSPDFTLRNTLKSTQEDSLVKQEC [S15Q], with 1.84; and FSPDFTLRNTLKSTWEDSLVKQEC [S15W], with 2.02. Turning to FSPDFTLRNTLKSTGEDSLVKQEC [S15G], the protein stability index turned out to be 2.33. For the variant FSPDYTLRNTLKSTSEDSLVKQEC [F5Y], the protein stability index was determined as 2.61. For FSPDLTLRNTLKSTSEDSLVKQEC [F5L], the protein stability index is 3.54. Regarding FSPDCTLRNTLKSTSEDSLVKQEC [F5C], the protein stability index worked out at 3.42. On to FSPDNTLRNTLKSTSEDSLVKQEC [F5N], for which the protein stability index turned out to be 3.82.

For the variant FSPDVTLRNTLKSTSEDSLVKQEC [F5V], the protein stability index amounted to 3.56. On to FSPDGTLRNTLKSTSEDSLVKQEC [F5G], for which the protein stability index was found to be 1.99. Regarding FSPDITLRNTLKSTSEDSLVKQEC [F5I], the protein stability index came to 3.65. Take FSFDFTLRNTLKSTSEDSLVKQEC [P3F]: the protein stability index is 2.83.

Consider FSCDFTLRNTLKSTSEDSLVKQEC [P3C], for which the protein stability index came to 2.64. Turning to FSVDFTLRNTLKSTSEDSLVKQEC [P3V], the protein stability index worked out at 2.58. Then VSPDFTLRNTLKSTSEDSLVKQEC [F1V], with 4.83; and ASPDFTLRNTLKSTSEDSLVKQEC [F1A], with 3.9; and RSPDFTLRNTLKSTSEDSLVKQEC [F1R], with 4.98. With TSPDFTLRNTLKSTSEDSLVKQEC [F1T] the figure was 5.28. Take SSPDFTLRNTLKSTSEDSLVKQEC [F1S]: the protein stability index was 4.81. Then FSPDFTLPNTLKSTSEDSLVKQEC [R8P], with 2.67; and FSPDFTLKNTLKSTSEDSLVKQEC [R8K], with 1.7; and FSPDFTLRHTLKSTSEDSLVKQEC [N9H], with 1.57. As for FSPDFTLRWTLKSTSEDSLVKQEC [N9W], the protein stability index came out at 2.62. With FSPDFTLRATLKSTSEDSLVKQEC [N9A], the protein stability index came to 1.67. Regarding FSPDFTLRMTLKSTSEDSLVKQEC [N9M], the protein stability index stood at 2.64. As for FSPDFTLRCTLKSTSEDSLVKQEC [N9C], the protein stability index came to 2.35.

Take FSPDFTLRNTLKSTSEDSLVKQEG [C24G]: the protein stability index was 2.39. Turning to FSPDFTLRNTLKSTSEDSLVKQEI [C24I], the protein stability index was found to be 1.67. As for FSPDFTLRNTLKSTSEDSLVKQEN [C24N], the protein stability index is 2.16. Then FSPDFTLRNTLKSTSEDSLVKQEW [C24W], with 2.18; and FSPDFTLRNTLKSTSEDSLVKQEP [C24P], with 2.75; and FSPDFTLRNTLKSTSEDSLVKQEY [C24Y], with 3.07. Take FSPDFTLRNTLKSTSEDSLVKQEA [C24A]: the protein stability index is 2.03. In the case of FSPDFTLRNTLKSTSEDSLVKQEL [C24L], the protein stability index is 2.03.

As to FSPDFTLRNTLKRTSEDSLVKQEC [S13R], the protein stability index was 3.03.

For FSPDFTLRNTLKATSEDSLVKQEC [S13A], the protein stability index is 1.9. As for FSPDFTLRNTLKGTSEDSLVKQEC [S13G], the protein stability index amounted to 1.81. As to FSPDFTLRNTLKHTSEDSLVKQEC [S13H], the protein stability index is 2.42.
